From patent US9175313B2, “Three-dimensional structure of isoprene synthase and its use thereof for generating variants” (Danisco US Inc., priority 2009, dated 2015)

Columns and labels:
[1] = DMAPP assay of site evaluation library (SEL) lysates with ELISA protein quantitation: specific activity ranked as performance index; type: biochemical; details: primary SEL screen; activity on DMAPP per unit weight relative to the parental molecule (parent = 1)
Procedure: 1. Prepared Patch Plates from Glycerol Stock Plates. Using a V&S 96 pin Replication Tool, cultures were patched onto a LB Agar 35 CMP/50 Kan large patch plates from overnight glycerol stock plates. Plates were incubated at 30° C. overnight for 20 to 24 hr. Cultures can be stored at 4° C. for up to a week.
2. Prepared Overnight Growth Plates. 500 mL of LB 35 CMP/50 Kan media were prepared. 300 μL/well of LB 35 CMP/50 Kan media were dispensed into deep 96 well plates (VWR). Using a V&S Replication Tool, the patch inoculum was transferred into deep 96 well plate by touching the tool pins to respective patch and using a circular motion to coat the pins with inoculum. The media was inoculated by dipping the tool then shaking the pin within the well. The overnight growth plates were sealed using a Breathe-Easier Sealing Membrane (Diversified Biotech). The plates were incubated in a Vertiga Shaking Incubator at 30° C. with shaking at 800 rpm overnight for 16 to 18 hr.
3. Prepared Day Growth Plate. Deep 96 well plates were prepared by dispensing 588 μL/well of LB 35 CMP/50 Kan media. Overnight growth plates were removed from the incubator. Overnight cultures were diluted 50-fold and 12 μL of overnight culture were transferred to day growth plates containing 588 μL/well of LB media containing antiobiotics. Overnight growth plates were sealed with new Breathe-Easier Sealing Membranes. Cultures were incubated at 30° C. and 800 rpm for 2.5 hr. Frozen 12 mM IPTG (Sigma) vials were removed from −20° C. and placed in a hood to thaw.
4. OD600 Plate Read of Overnight, Induction, and Harvest. 150 μL 1×PBS were dispensed into 96 well Costar Read Plates (#9017). 50 μL of culture samples were transferred to Read Plates. The OD600 reading was recorded using a Spectramax Plate Reader (Molecular Devices).
5. Induction. Electronic multi-channel pipettors were prepared to dispense 4×20 μL/well of IPTG (if 4× replicates). The multi-dispense option in the electronic pipettor was adjusted if more replicates was necessary. Thawed 12 mM IPTG was poured into 50 mL or 100 mL sterile reservoirs. 20 μL/well of IPTG into each 600 μL/well culture. Overnight growth plates were resealed. Cultures were incubated at 30° C. and 800 rpm for 4 hr. OD600 readings of plates were recorded according instructions above.
6. Harvest. 400 μL of induced culture were transferred to 800 μL Grenier storage plates. Plates were centrifuged at 3300 rpm for 20 min at 2° to 8° C. in a low speed benchtop centrifuge. Supernatants were discarded, pellets should stay in the conical bottom well. Residual supernatants were slapped out onto a paper towel on the benchtop. Plates were sealed with an aluminum foil membrane (Beckman-Coulter). Plates were covered with a plastic plate lid if available. Storage plates were labeled accordingly and stored frozen at −80° C.
Plates containing induced cell pellets were removed from the −80° C. freezer and allowed to thaw on the benchtop for 30 minutes prior to lysis. 200 μl of lysis buffer (50 mM Tris pH 8, 25 mM MgCl2, 74 μg/ml DNase I, 250 U/ml lysozyme, 0.1% Tween 20, 0.5 mM PMSF) was added to each pellet, and plates were incubated on an Eppendorf Thermomixer at 25° C. for 30 minutes at 1200 rpm. After lysis, plates were centrifuged at 3450 rpm for 15 minutes at 4° C. Supernatants were then removed and diluted 10-fold prior to DMAPP assay. 80 μl of the diluted supernatant was added to 20 μl of the DMAPP working stock (20 mM DMAPP in 0.1 M Phosphate Buffer pH 8.2, DMAPP triammonium salt, Cayman chemicals) in a Zinsser glass block. Blocks were then sealed with aluminum sealing membranes, and incubated in Thermomixers at 25° C. for 30 minutes at 450 rpm. Reactions were stopped by incubating blocks on Thermomixers at 70° C. for 12 minutes at 450 rpm. GC-MS was then used for headspace measurements to calculate the amount of isoprene produced by each lysates.
Headspace Assay. […]

[2] = Specific activity measurement of purified isoprene synthase variants (4 mM DMAPP, 30 C, GC-MS headspace); type: biochemical; details: 50 mM NaCl, 50 mM Tris pH = 8, 30° C.; for Variant S.A./WT S.A.: ratio to WT
Procedure: 1. Initial Purification—Resuspend the pellet in 3 ml of fresh lysis buffer. Break cells by passing them through the French Press using the small cylinder. Centrifuge samples for 1 hour at 30,000×G and collect the supernatant. Retain pellet in order to test for presence of insoluble protein. Pre equilibrate 0.5 mL Ni Sepharose 6 Fast Flow resin (Amersham) in a 20 ml disposable column with 10 mL of Ni wash buffer. Add protein to column and shake for 60 min at 4 C to bind protein. Elute protein with 2.5 mL Ni elution buffer.
2. Buffer Exchange—Equilibrate a PD-10 column (GE Healthcare) with 25 mL of PD-10 buffer. Load protein on to column and elute with 3.5 mL of PD-10 buffer.
10 uL of purified enzyme was incubated with 4 mM DMAPP, 50 mM MgCl2 in a buffer containing 50 mM Tris and 50 mM NaCl (pH=8) to a final volume of 100 uL for 15 min. at 30 C in gas tight 2 mL vials. Reactions were terminated with the addition of 100 uL of […] EDTA, pH=8. Samples were analyzed by GC-MS to determine the concentration of isoprene in the headspace of the vials. All specific activity measurements were performed in triplicate.
Protein concentration was determined by measuring the absorbance of each protein solution at 280 nm on a Helwlett Pachard 8453 UV-Vis spectrophotometer and converting the absorbance to protein concentration using the extinction coefficient as determined on the Expasy website (Gasteiger E., Hoogland C., Gattiker A., Duvaud S., Wilkins M. R., Appel R. D., Bairoch A.; Protein Identification and Analysis Tools on the ExPASy Server; (In) John M. Walker (ed): The Proteomics Protocols Handbook, Humana Press (2005). pp. 571-607). The protein concentrations of isoprene synthase variants assayed for KM and kcat determination were verified by comparative gel electrophoresis of a dilution series of each protein (FIG. 61).

Molecule | performance index [1] | S.A. [2] | Variant S.A./WT S.A. [2]
D345R: P. alba IspS variant (protein, UniProt Q50L36 38-595, looked up, variant D345R) Isoprene synthase, …: CSVSTENVSFTETETEARRSANYEPNSWDYDYLLSSDTDESIEVYKDKAKKLEAEVRREINNEKAEFLTLLELIDNVQRLGLGYRFESDIRGALDRFVSSGGFDAVTKTSLHGTALSFRLLRQHGFEVSQEAFSGFKDQNGNFLENLKEDIKAILSLYEASFLALEGENILDEAKVFAISHLKELSEEKIGKELAEQVNHALELPLHRRTQRLEAVWSIEAYRKKEDANQVLLELAILDYNMIQSVYQRDLRETSRWWRRVGLATKLHFARDRLIESFYWAVGVAFEPQYSDCRNSVAKMFSFVTIIRDIYDVYGTLDELELFTDAVERWDVNAINDLPDYMKLCFLALYNTINEIAYDNLKDKGENILPYLTKAWADLCNAFLQEAKWLYNKSTPTFDDYFGNAWKSSSGPLQLVFAYFAVVQNIKKEEIENLQKYHDTISRPSHIFRLCNDLASASAEIARGETANSVSCYMRTKGISEELATESVMNLIDETWKKMNKEKLGGSLFAKPFVETAINLARQSHCTYHNGDAHTSPDELTRKRVLSVITEPILPFER | 0.40 | – | –
D345P: P. alba IspS variant (protein, UniProt Q50L36 38-595, looked up, variant D345P) Isoprene synthase, …: CSVSTENVSFTETETEARRSANYEPNSWDYDYLLSSDTDESIEVYKDKAKKLEAEVRREINNEKAEFLTLLELIDNVQRLGLGYRFESDIRGALDRFVSSGGFDAVTKTSLHGTALSFRLLRQHGFEVSQEAFSGFKDQNGNFLENLKEDIKAILSLYEASFLALEGENILDEAKVFAISHLKELSEEKIGKELAEQVNHALELPLHRRTQRLEAVWSIEAYRKKEDANQVLLELAILDYNMIQSVYQRDLRETSRWWRRVGLATKLHFARDRLIESFYWAVGVAFEPQYSDCRNSVAKMFSFVTIIPDIYDVYGTLDELELFTDAVERWDVNAINDLPDYMKLCFLALYNTINEIAYDNLKDKGENILPYLTKAWADLCNAFLQEAKWLYNKSTPTFDDYFGNAWKSSSGPLQLVFAYFAVVQNIKKEEIENLQKYHDTISRPSHIFRLCNDLASASAEIARGETANSVSCYMRTKGISEELATESVMNLIDETWKKMNKEKLGGSLFAKPFVETAINLARQSHCTYHNGDAHTSPDELTRKRVLSVITEPILPFER | 0.35 | – | –
L469L: SEL member with the wild type residue at site 469 (wild type codon substituted) (protein, UniProt Q50L36 38-595, looked up) Isoprene synthase, …: CSVSTENVSFTETETEARRSANYEPNSWDYDYLLSSDTDESIEVYKDKAKKLEAEVRREINNEKAEFLTLLELIDNVQRLGLGYRFESDIRGALDRFVSSGGFDAVTKTSLHGTALSFRLLRQHGFEVSQEAFSGFKDQNGNFLENLKEDIKAILSLYEASFLALEGENILDEAKVFAISHLKELSEEKIGKELAEQVNHALELPLHRRTQRLEAVWSIEAYRKKEDANQVLLELAILDYNMIQSVYQRDLRETSRWWRRVGLATKLHFARDRLIESFYWAVGVAFEPQYSDCRNSVAKMFSFVTIIDDIYDVYGTLDELELFTDAVERWDVNAINDLPDYMKLCFLALYNTINEIAYDNLKDKGENILPYLTKAWADLCNAFLQEAKWLYNKSTPTFDDYFGNAWKSSSGPLQLVFAYFAVVQNIKKEEIENLQKYHDTISRPSHIFRLCNDLASASAEIARGETANSVSCYMRTKGISEELATESVMNLIDETWKKMNKEKLGGSLFAKPFVETAINLARQSHCTYHNGDAHTSPDELTRKRVLSVITEPILPFER | 0.96 | – | –
NSC: P. alba MEA A453N G491S T536C (+) TEV; pDW107, SEQ ID NO: 81 (protein, TEV site) MEARRSANYEPNSWDYDYLLSSDTDESIEVYKDKAKKLEAEVRREINNEKAEFLTLLELIDNVQRLGLGYRFESDIRGALDRFVSSGGFDAVTKTSLHGTALSFRLLRQHGFEVSQEAFSGFKDQNGNFLENLKEDIKAILSLYEASFLALEGENILDEAKVFAISHLKELSEEKIGKELAEQVNHALELPLHRRTQRLEAVWSIEAYRKKEDANQVLLELAILDYNMIQSVYQRDLRETSRWWRRVGLATKLHFARDRLIESFYWAVGVAFEPQYSDCRNSVAKMFSFVTIIDDIYDVYGTLDELELFTDAVERWDVNAINDLPDYMKLCFLALYNTINEIAYDNLKDKGENILPYLTKAWADLCNAFLQEAKWLYNKSTPTFDDYFGNAWKSSSGPLQLVFAYFAVVQNIKKEEIENLQKYHDTISRPSHIFRLCNDLASASAEIARGETNNSVSCYMRTKGISEELATESVMNLIDETWKKMNKEKLSGSLFAKPFVETAINLARQSHCTYHNGDAHTSPDELTRKRVLSVICEPILPFERENLYFQGLEHHHHHH | – | 390 ± 20 nmol/mg/min | 0.8
NSPC: P. alba MEA A453N G491S L494P T536C (+) TEV; pDW109, SEQ ID NO: 85 (protein, TEV site) MEARRSANYEPNSWDYDYLLSSDTDESIEVYKDKAKKLEAEVRREINNEKAEFLTLLELIDNVQRLGLGYRFESDIRGALDRFVSSGGFDAVTKTSLHGTALSFRLLRQHGFEVSQEAFSGFKDQNGNFLENLKEDIKAILSLYEASFLALEGENILDEAKVFAISHLKELSEEKIGKELAEQVNHALELPLHRRTQRLEAVWSIEAYRKKEDANQVLLELAILDYNMIQSVYQRDLRETSRWWRRVGLATKLHFARDRLIESFYWAVGVAFEPQYSDCRNSVAKMFSFVTIIDDIYDVYGTLDELELFTDAVERWDVNAINDLPDYMKLCFLALYNTINEIAYDNLKDKGENILPYLTKAWADLCNAFLQEAKWLYNKSTPTFDDYFGNAWKSSSGPLQLVFAYFAVVQNIKKEEIENLQKYHDTISRPSHIFRLCNDLASASAEIARGETNNSVSCYMRTKGISEELATESVMNLIDETWKKMNKEKLSGSPFAKPFVETAINLARQSHCTYHNGDAHTSPDELTRKRVLSVICEPILPFERENLYFQGLEHHHHHH | – | 502 ± 6 nmol/mg/min | 1.1
